Experimental data published in the supplement of paper PMC10126150.
± gives the standard deviation of the averaged measurements.

Tested on: ATP
Test: switch fluorescence ratio, 500 uM ATP over buffer (Cy3 cluster intensity, sum of 5 cycles each) (fold (ratio)); higher = stronger signal-on switching upon ATP binding; sequences stand for … in TCGTCGGCAGCGTCAGATGTGTATAAGAGACAGTTTTTTTTTTTTTTTTTTTTTTTTT…TC
Details: aptamer strand: ATP DNA aptamer (quencher-CACCTGGGGGAGTATTGCGGAGGAAGG + anchor), 100 nM annealed; ATP concentration: 500 uM
How it was run: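 The fluorescence ratio divides summed target-cycle Cy3 intensity by summed buffer-cycle Cy3 intensity for each cluster and is averaged per switch-domain sequence. Cy3-labelled switching-strand clusters on a modified Illumina MiSeq flow-cell were annealed to 100 nM quencher-labelled ATP aptamer, then imaged in selection buffer and again after 15 min with 500 uM ATP at 22 °C. Five such cycles were run, with NaOH stripping and re-annealing between them, and clusters outside 100-1000 RFU were excluded.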
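Further: ATP exposure 15 min at 22 °C before imaging.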

Sequence	switch fluorescence ratio
TCGGAATAGA	1.22 ± 0.26
TCGGAGAAGG	1.02 ± 0.064
TCGGAGCCAC	3.16 ± 3
TCGGAGCGGG	1.102 ± 0.0032
TCGGAGCTTA	2.977 ± 0.018
TCGGAGCTTC	4.06 ± 1.4
TCGGAGGGGG	1.05 ± 0.2
TCGGAGTACT	1.16 ± 0.03
TCGGATAAGA	0.995 ± 0.048
TCGGATAGGG	1.04 ± 0.071
TCGGCATGAT	0.998 ± 0.011
TCGGCCGCTG	1.05 ± 0.064
TCGGCCGGGA	1.05 ± 0.011
TCGGCCGTCC	1.056 ± 0.009
TCGGCGAATG	1.02 ± 0.024
TCGGCGTGGG	1.01 ± 0.025
TCGGGAACAG	1.02 ± 0.035
TCGGGAGGTT	1.01 ± 0.031
TCGGGATACT	1.86 ± 0.32
TCGGGATAGG	1.05 ± 0.018
TCGGGCGTAT	1 ± 0.056
TCGGGGAATG	1.002 ± 0.0032
TCGGGGAGGA	0.956 ± 0.026
TCGGGGAGTT	0.982 ± 0.021
TCGGGGATAG	0.979 ± 0.047
TCGGGGCAG	0.976 ± 0.033

Sequence	switch fluorescence ratio
TCGGGGCCAT	1.02 ± 0.062
TCGGGGCGGA	0.994 ± 0.038
TCGGGGGCAC	1.45 ± 0.71
TCGGGGGGAT	1.21 ± 0.36
TCGGGGGGTA	0.985 ± 0.021
TCGGGGTAAT	1.03 ± 0.019
TCGGGGTCAG	0.999 ± 0.02
TCGGGTATTT	0.998 ± 0.021
TCGGGTCCGT	0.982 ± 0.027
TCGGGTTCTC	0.967 ± 0.0091
TCGGGTTCTT	1.02 ± 0.027
TCGGGTTTTA	1.03 ± 0.039
TCGGTAAATG	1.04 ± 0.018
TCGGTCAGTA	1.002 ± 0.0036
TCGGTCATGG	0.993 ± 0.023
TCGGTGACAG	1.01 ± 0.018
TCGGTGCTGG	0.977 ± 0.018
TCGGTGGAGA	1.01 ± 0.024
TCGGTGGAGC	1.02 ± 0.13
TCGGTGTCGG	0.98 ± 0.037
TCGGTGTTCA	1 ± 0.011
TCGGTTAGAT	0.981 ± 0.057
TCGGTTCTAC	0.9985 ± 0.0099
TCGGTTGAAG	0.988 ± 0.017
TCGGTTGTGA	0.999 ± 0.011
TCGGTTTTTA	1 ± 0.043

Sequence	switch fluorescence ratio
TCGTAAAGAG	1.022 ± 0.0069
TCGTAAAGGG	1.01 ± 0.022
TCGTAAAGTT	0.955 ± 0.02
TCGTAACAGG	1.01 ± 0.034
TCGTAAGGAA	1.01 ± 0.02
TCGTAATAGG	1.118 ± 0.011
TCGTAATCGC	1.4113 ± 0.0014
TCGTAATGTG	1.03 ± 0.033
TCGTACTTTT	0.989 ± 0.05
TCGTAGCTGT	1.18 ± 0.052
TCGTAGGAGC	1.03 ± 0.02
TCGTAGGGTT	1.01 ± 0.04
TCGTAGGTGG	1.02 ± 0.063
TCGTATTTGG	0.993 ± 0.032
TCGTCCTTTT	0.976 ± 0.03
TCGTCGTAGC	1.05 ± 0.072
TCGTCTGTGG	0.974 ± 0.029
TCGTGAGGTG	1.02 ± 0.068
TCGTGAGTGG	0.975 ± 0.021
TCGTGCGGGT	1.001 ± 0.0081
TCGTGCTTGG	1 ± 0.029
TCGTGGCGCT	0.995 ± 0.048
TCGTGGGACT	1.07 ± 0.12
TCGTGGGGGC	1.07 ± 0.14
TCGTGGTGTT	1.03 ± 0.021
TCGTGTGGAG	1.01 ± 0.033

Sequence	switch fluorescence ratio
TCGTGTTAGG	1.02 ± 0.022
TCGTTAAATT	0.988 ± 0.035
TCGTTAGAAG	0.9966 ± 0.0052
TCGTTAGAAT	0.948 ± 0.013
TCGTTATATT	0.98 ± 0.015
TCGTTCAGTA	0.958 ± 0.014
TCGTTCGGCA	1.06 ± 0.032
TCGTTCTTTT	0.966 ± 0.019
TCGTTGAATG	0.956 ± 0.014
TCGTTGGCAA	2.3 ± 0.23
TCGTTGTGCT	0.964 ± 0.027
TCGTTTTACT	1.34 ± 0.44
TCGTTTTGCG	0.9977 ± 0.0086
TCTAACCTGG	1.006 ± 0.0042
TCTAAGGGA	1.01 ± 0.018
TCTAATTACA	1.04 ± 0.073
TCTACGGGAT	2.54 ± 0.2
TCTACTAT	1.06 ± 0.031
TCTACTTTAC	1.39 ± 0.15
TCTAGAGGGT	1.01 ± 0.028
TCTAGCAGTT	1.048 ± 0.0014
TCTAGCCCTG	1.06 ± 0.073
TCTAGCCGCG	1.016 ± 0.0044
TCTAGGGCGC	1.01 ± 0.053
TCTAGTTAAA	0.986 ± 0.0074
TCTATAATCG	0.977 ± 0.034

Sequence	switch fluorescence ratio
TCTATACCAC	1.06 ± 0.014
TCTATGCATG	1.04 ± 0.029
TCTATGCTTC	1.9 ± 1.1
TCTATGTTAT	0.999 ± 0.027
TCTATTATTG	0.98 ± 0.011
TCTATTGGCT	1.016 ± 0.0049
TCTATTGGGA	0.981 ± 0.028
TCTATTTGTG	0.966 ± 0.02
TCTCAAGGCG	1.03 ± 0.0089
TCTCAAGTGC	1.118 ± 0.0083
TCTCAGTGTT	1.028 ± 0.0064
TCTCATAGTA	0.997 ± 0.047
TCTCATCGGG	1.014 ± 0.0037
TCTCATTACG	1.012 ± 0.0094
TCTCCAGGGG	2.3 ± 2.1
TCTCCTGGGA	1.03 ± 0.018
TCTCGCCGGG	1.02 ± 0.031
TCTCGGGGGG	1.02 ± 0.065
TCTCGTACCT	1.19 ± 0.12
TCTCTTTCTG	0.9729 ± 0.0073
TCTGAAAACT	1.06 ± 0.0013
TCTGAAATAA	1.08 ± 0.048
TCTGAACAGG	1.03 ± 0.014
TCTGAACGGG	1.02 ± 0.011
TCTGAGGTAT	1.03 ± 0.034
TCTGAGGTGC	1.06 ± 0.046

Sequence	switch fluorescence ratio
TCTGATGCGT	1.03 ± 0.0038
TCTGATTATA	0.987 ± 0.024
TCTGATTGTG	0.972 ± 0.047
TCTGCACATT	1.07 ± 0.025
TCTGCTTTTG	1.05 ± 0.02
TCTGGAAGGT	1.04 ± 0.053
TCTGGATAGG	0.9625 ± 0.0058
TCTGGATATT	1.01 ± 0.025
TCTGGCAGAT	1.01 ± 0.028
TCTGGGAGGC	1.01 ± 0.021
TCTGGGAGGT	0.975 ± 0.02
TCTGGGGGAA	1.06 ± 0.15
TCTGGGTGGA	0.994 ± 0.015
TCTGGTAATT	1 ± 0.02
TCTGGTATGG	0.994 ± 0.0034
TCTGGTCATG	0.995 ± 0.014
TCTGGTGAAA	1.02 ± 0.054
TCTGGTGACG	1.04 ± 0.054
TCTGGTTGT	0.992 ± 0.028
TCTGGTTGTA	0.995 ± 0.051
TCTGTAAGAA	1.03 ± 0.041
TCTGTAAGGG	0.9783 ± 0.0076
TCTGTAAGGT	0.986 ± 0.02
